Test results: patent US20170086465A1 (TECHNION RESEARCH AND DEVELOPMENT FOUNDATION, published 2017)

Molecular target: the molecule itself
Assay: cell-based or functional assay

B1: C. elegans aff-1 fused to a C-terminal FLAG tag (AFF-1::FLAG) (other)
chain: RLRRHHRKRRFVSSNFDEFYCGESAHAQSQFEEERESNSSKVSSVHSTQFNWGLDNTICIKLQNVVHVLKYERLEQRYPIENSYTFSVPLIDTNCKCHCYGFGTNDVCNVEKYADDRNCTTSSEFPTCYTKYHPAVEPLDCPVTSIPAKACCDIKLKPRDGRMFRAVKLQQPINDMIISHSIFANNSGKMMKVLGPDEFRINLLKGKEQFELTEYHRISVQLVASSPQQQLREGMYYFPEENHNDLREGKINEITESDLDKLGWYRRVGNDWQVATSGLLLRNAHKVVIKNCKGQVHMDQFSGTKNFVLRGTQYNDTYNERRVSDNNFVRSVKVDESSREITIVHEHGTAAQVSLKTDTRPNLTKSQSLLANFTGSITLDHDGNRMLNVTFFGVKGTVHIKMYVNDRKLIATFACTAQFGTSLKDDGSRISLPSTINQAQWVCILPDEQPTKSEICKWIPYEEKAMRTPRQEQSWSKGHSPCSQAECNSLKSGVSDLFPWIMNFDYFMAHGGDFTEWLKIGIHIVIAVGLLLLLILLFTKCLVPLACCSLSIPFKNRNKKKKKKNSSDY
Q: Which “infection of BHK-AFF-1 cells by VSVΔG-AFF-1 pseudovirus (GFP-expressing cells)” value does the source give for B1 here?
A: Its value is 600 fold.
